{"source": "paper PMC4705995", "about": "“The Protein Interaction of RNA Helicase B (RhlB) and Polynucleotide Phosphorylase (PNPase) Contributes to the Homeostatic Control of Cysteine in Escherichia coli*” (The Journal of Biological Chemistry, 2015)", "binders": {"B1": {"name": "FlagPNPase (Flag-tagged PNP) (enzyme)", "chain": "MLNPIVRKFQYGQHTVTLETGMMARQATAAVMVSMDDTAVFVTVVGQKKAKPGQDFFPLTVNYQERTYAAGRIPGSFFRREGRPSEGETLIARLIDRPIRPLFPEGFVNEVQVIATVVSVNPQVNPDIVAMIGASAALSLSGIPFNGPIGAARVGYINDQYVLNPTQDELKESKLDLVVAGTEAAVLMVESEAQLLSEDQMLGAVVFGHEQQQVVIQNINELVKEAGKPRWDWQPEPVNEALNARVAALAEARLSDAYRITDKQERYAQVDVIKSETIATLLAEDETLDENELGEILHAIEKNVVRSRVLAGEPRIDGREKDMIRGLDVRTGVLPRTHGSALFTRGETQALVTATLGTARDAQVLDELMGERTDTFLFHYNFPPYSVGETGMVGSPKRREIGHGRLAKRGVLAVMPDMDKFPYTVRVVSEITESNGSSSMASVCGASLALMDAGVPIKAAVAGIAMGLVKEGDNYVVLSDILGDEDHLGDMDFKVAGSRDGISALQMDIKIEGITKEIMQVALNQAKGARLHILGVMEQAINAPRGDISEFAPRIHTIKINPDKIKDVIGKGGSVIRALTEETGTTIEIEDDGTVKIAATDGEKAKHAIRRIEEITAEIEVGRVYTGKVTRIVDFGAFVAIGGGKEGLVHISQIADKRVEKVTDYLQMGQEVPVKVLEVDRQGRIRLSIKEATEQSQPAAAPEAPAAEQGE"}}, "key": {"[1]": {"target": "B1", "assay": "SPR"}, "[2]": {"target": "T1, FlagPNPase (Flag-tagged PNP) (Escherichia coli, UniProt P05055 1-711)", "T1 construct": "polynucleotide phosphorylase (PNPase) of Escherichia coli; also called pFlagPNP; polynucleotide phosphorylase", "T1 sequence (looked up)": "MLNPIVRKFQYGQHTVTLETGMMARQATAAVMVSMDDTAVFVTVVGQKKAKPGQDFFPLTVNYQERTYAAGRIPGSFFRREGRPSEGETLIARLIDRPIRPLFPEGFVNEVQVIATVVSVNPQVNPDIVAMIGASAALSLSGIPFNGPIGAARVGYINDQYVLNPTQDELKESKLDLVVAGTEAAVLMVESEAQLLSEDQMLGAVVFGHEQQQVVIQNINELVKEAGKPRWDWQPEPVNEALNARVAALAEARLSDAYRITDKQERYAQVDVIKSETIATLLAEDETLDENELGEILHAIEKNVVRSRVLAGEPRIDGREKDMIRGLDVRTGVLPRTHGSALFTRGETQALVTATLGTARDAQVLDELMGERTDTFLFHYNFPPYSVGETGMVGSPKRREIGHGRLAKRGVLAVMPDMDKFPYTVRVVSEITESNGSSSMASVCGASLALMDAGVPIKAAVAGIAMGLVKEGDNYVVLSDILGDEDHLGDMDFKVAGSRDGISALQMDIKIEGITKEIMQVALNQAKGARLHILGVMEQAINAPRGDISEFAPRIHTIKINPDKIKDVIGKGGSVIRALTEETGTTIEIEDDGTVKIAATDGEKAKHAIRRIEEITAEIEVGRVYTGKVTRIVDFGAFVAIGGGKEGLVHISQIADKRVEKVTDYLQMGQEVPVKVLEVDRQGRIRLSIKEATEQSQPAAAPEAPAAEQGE", "assay": "SPR; Biacore X; purified FlagPNPase immobilised on a CM5 chip by amine coupling; 0.75 to 24 uM FlagRhlB injected at 10 ul/min, 25 °C", "conditions": "both partners purified"}, "[3]": {"target": "B1", "assay": "SPR"}, "[4]": {"target": "T2, FlagRhlB^P238L (Flag-tagged RhlB^P238L) (Escherichia coli, UniProt P0A8J8 1-421, P238L)", "T2 sequence": "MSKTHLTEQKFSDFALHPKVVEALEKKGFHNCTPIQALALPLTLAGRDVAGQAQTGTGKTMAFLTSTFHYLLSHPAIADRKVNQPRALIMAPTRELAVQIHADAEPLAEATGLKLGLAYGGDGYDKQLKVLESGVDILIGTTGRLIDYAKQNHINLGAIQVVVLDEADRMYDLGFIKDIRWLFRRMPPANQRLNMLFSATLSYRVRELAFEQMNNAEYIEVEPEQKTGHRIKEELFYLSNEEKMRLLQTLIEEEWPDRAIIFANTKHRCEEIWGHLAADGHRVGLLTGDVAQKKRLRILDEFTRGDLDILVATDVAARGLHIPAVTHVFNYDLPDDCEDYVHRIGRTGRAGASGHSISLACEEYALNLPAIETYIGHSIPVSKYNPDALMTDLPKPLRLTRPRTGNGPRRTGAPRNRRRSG", "assay": "SPR"}, "[5]": {"target": "T2, FlagRhlB^P238L (Flag-tagged RhlB^P238L)", "assay": "SPR", "remark": "listed apart in the source"}}, "data": [{"binder": "FlagRhlB^wt (Flag-tagged wild-type RhlB) (enzyme, Escherichia coli, UniProt P0A8J8 1-421, looked up, RNA helicase B (RhlB) of Escherichia coli; also called pFlagRhlB^wt) MSKTHLTEQKFSDFALHPKVVEALEKKGFHNCTPIQALALPLTLAGRDVAGQAQTGTGKTMAFLTSTFHYLLSHPAIADRKVNQPRALIMAPTRELAVQIHADAEPLAEATGLKLGLAYGGDGYDKQLKVLESGVDILIGTTGRLIDYAKQNHINLGAIQVVVLDEADRMYDLGFIKDIRWLFRRMPPANQRLNMLFSATLSYRVRELAFEQMNNAEYIEVEPEQKTGHRIKEELFYPSNEEKMRLLQTLIEEEWPDRAIIFANTKHRCEEIWGHLAADGHRVGLLTGDVAQKKRLRILDEFTRGDLDILVATDVAARGLHIPAVTHVFNYDLPDDCEDYVHRIGRTGRAGASGHSISLACEEYALNLPAIETYIGHSIPVSKYNPDALMTDLPKPLRLTRPRTGNGPRRTGAPRNRRRSG", "values": [{"measurement": "koff", "setting": "[1]", "value": 0.0021, "unit": "s⁻¹"}, {"measurement": "kon", "setting": "[2]", "value": 1260, "unit": "M⁻¹ s⁻¹"}, {"measurement": "Kd", "setting": "[3]", "value": 1.67, "unit": "µM"}]}, {"binder": "FlagRhlB^P238L (Flag-tagged RhlB^P238L) (enzyme, Escherichia coli, UniProt P0A8J8 1-421, looked up, RNA helicase B (RhlB) of Escherichia coli with P238L, introduced into pFlagRhlB by site-directed mutagenesis; also called pFlagRhlB^P238L) MSKTHLTEQKFSDFALHPKVVEALEKKGFHNCTPIQALALPLTLAGRDVAGQAQTGTGKTMAFLTSTFHYLLSHPAIADRKVNQPRALIMAPTRELAVQIHADAEPLAEATGLKLGLAYGGDGYDKQLKVLESGVDILIGTTGRLIDYAKQNHINLGAIQVVVLDEADRMYDLGFIKDIRWLFRRMPPANQRLNMLFSATLSYRVRELAFEQMNNAEYIEVEPEQKTGHRIKEELFYLSNEEKMRLLQTLIEEEWPDRAIIFANTKHRCEEIWGHLAADGHRVGLLTGDVAQKKRLRILDEFTRGDLDILVATDVAARGLHIPAVTHVFNYDLPDDCEDYVHRIGRTGRAGASGHSISLACEEYALNLPAIETYIGHSIPVSKYNPDALMTDLPKPLRLTRPRTGNGPRRTGAPRNRRRSG", "values": [{"measurement": "kon", "setting": "[2]", "value": 311, "unit": "M⁻¹ s⁻¹"}]}, {"binder": "B1", "values": [{"measurement": "koff", "setting": "[4]", "value": 0.00207, "unit": "s⁻¹"}, {"measurement": "Kd", "setting": "[5]", "value": 6.64, "unit": "µM"}]}]}
